According to patent US20220273789A1:

What follows are substances tested against human IgG (human) (assay: BLI Octet, construct on Ni-NTA sensor, hIgG in solution).
For “HSV2-gE_A246W P317F_gI (from UniProt P89475 21-416; P06764 21-256) (receptor)”, the Kd was under 0.001 nM, the Response (nm) was 0.101 nm and the koff was under 1e-07 s⁻¹. The kon was 6180 M⁻¹ s⁻¹. “HSV2-gE_A246W P317K_gI (from UniProt P89475 21-416; P06764 21-256) (receptor)” showed a Kd of under 0.001 nM, a Response (nm) of 0.071 nm and a koff of under 1e-07 s⁻¹. It also gave a kon of 6090 M⁻¹ s⁻¹. In the case of “HSV2-gE_A246W P317S_gI (from UniProt P89475 21-416; P06764 21-256) (receptor)”, the Kd is reported as under 0.001 nM, the Response (nm) is reported as 0.121 nm and the koff is reported as under 1e-07 s⁻¹. The kon was 3600 M⁻¹ s⁻¹. “HSV2-gE_A246W R320D_gI (from UniProt P89475 21-416; P06764 21-256) (receptor)” was tested, and the Kd was under 0.001 nM, the Response (nm) was 0.0712 nm and the koff was under 1e-07 s⁻¹. For the same substance, the kon was 2260 M⁻¹ s⁻¹. “HSV2-gE_A248G F322A_gI (from UniProt P89475 21-416; P06764 21-256) (receptor)” showed a Kd of 270 nM, a Response (nm) of 0.559 nm and a koff of 0.00352 s⁻¹. For the same substance, the kon was 13100 M⁻¹ s⁻¹. For “HSV2-gE_A248G F322I_gI (from UniProt P89475 21-416; P06764 21-256) (receptor)”, the Kd was 465 nM, the Response (nm) was 0.373 nm and the koff was 0.00439 s⁻¹. The kon was 9450 M⁻¹ s⁻¹. “HSV2-gE_A248G F322P_gI (from UniProt P89475 21-416; P06764 21-256) (receptor)” showed a Kd of 320 nM, a Response (nm) of 0.497 nm and a koff of 0.00367 s⁻¹. It also gave a kon of 11500 M⁻¹ s⁻¹. Substance “HSV2-gE_A248G V340M_gI (from UniProt P89475 21-416; P06764 21-256) (receptor)” has a Kd of 571 nM, a Response (nm) of 0.452 nm and a koff of 0.0052 s⁻¹. The kon was 9110 M⁻¹ s⁻¹. With “HSV2-gE_A248G V340R_gI (from UniProt P89475 21-416; P06764 21-256) (receptor)” the Kd was 8960 nM, the Response (nm) was 0.303 nm and the koff was 0.00461 s⁻¹. It also gave a kon of 514 M⁻¹ s⁻¹. In the case of “HSV2-gE_A248G_gI (from UniProt P89475 21-416; P06764 21-256) (receptor)”, the Kd is reported as 560 nM, the Response (nm) is reported as 0.506 nm and the koff is reported as 0.00551 s⁻¹. It also gave a kon of 9840 M⁻¹ s⁻¹. “HSV2-gE_A248K F322A_gI (from UniProt P89475 21-416; P06764 21-256) (receptor)” was tested, and the Kd was 408 nM, the Response (nm) was 0.481 nm and the koff was 0.00397 s⁻¹. For the same substance, the kon was 9720 M⁻¹ s⁻¹. Work on “HSV2-gE_A248K F322I_gI (from UniProt P89475 21-416; P06764 21-256) (receptor)” yielded a Kd of 870 nM, a Response (nm) of 0.321 nm and a koff of 0.00525 s⁻¹. The kon was 6040 M⁻¹ s⁻¹. Substance “HSV2-gE_A248K F322P_gI (from UniProt P89475 21-416; P06764 21-256) (receptor)” has a Kd of 498 nM, a Response (nm) of 0.427 nm and a koff of 0.00461 s⁻¹. It also gave a kon of 9250 M⁻¹ s⁻¹. “HSV2-gE_A248K V340M_gI (from UniProt P89475 21-416; P06764 21-256) (receptor)” gave a Kd of under 0.001 nM, a Response (nm) of 0.0007 nm and a koff of under 1e-07 s⁻¹. The kon was 237 M⁻¹ s⁻¹. “HSV2-gE_A248K V340R_gI (from UniProt P89475 21-416; P06764 21-256) (receptor)” showed a Kd of under 0.001 nM, a Response (nm) of 0.0449 nm and a koff of under 1e-07 s⁻¹. For the same substance, the kon was 3040 M⁻¹ s⁻¹. For “HSV2-gE_A248K_gI (from UniProt P89475 21-416; P06764 21-256) (receptor)”, the Kd was 450 nM, the Response (nm) was 0.477 nm and the koff was 0.00499 s⁻¹. It also gave a kon of 11100 M⁻¹ s⁻¹. “HSV2-gE_A248T F322I_gI (from UniProt P89475 21-416; P06764 21-256) (receptor)” gave a Kd of 8850 nM, a Response (nm) of 0.184 nm and a koff of 0.00486 s⁻¹. The kon was 549 M⁻¹ s⁻¹. With “HSV2-gE_A248T F322P_gI (from UniProt P89475 21-416; P06764 21-256) (receptor)” the Kd was 1490 nM, the Response (nm) was 0.2 nm and the koff was 0.00426 s⁻¹. It also gave a kon of 2870 M⁻¹ s⁻¹. Substance “HSV2-gE_A248T V340R_gI (from UniProt P89475 21-416; P06764 21-256) (receptor)” has a Kd of under 0.001 nM, a Response (nm) of 0.183 nm and a koff of under 1e-07 s⁻¹. For the same substance, the kon was 5000 M⁻¹ s⁻¹. For “HSV2-gE_F322A_gI (from UniProt P89475 21-416; P06764 21-256) (receptor)”, the Kd was 167 nM, the Response (nm) was 0.86 nm and the koff was 0.00273 s⁻¹. The kon was 16400 M⁻¹ s⁻¹. For “HSV2-gE_F322I_gI (from UniProt P89475 21-416; P06764 21-256) (receptor)”, the Kd was 302 nM, the Response (nm) was 0.639 nm and the koff was 0.00363 s⁻¹. It also gave a kon of 12000 M⁻¹ s⁻¹. In the case of “HSV2-gE_F322K_gI (from UniProt P89475 21-416; P06764 21-256) (receptor)”, the Kd is reported as 278 nM, the Response (nm) is reported as 0.599 nm and the koff is reported as 0.00301 s⁻¹. It also gave a kon of 10800 M⁻¹ s⁻¹. In the case of “HSV2-gE_F322N_gI (from UniProt P89475 21-416; P06764 21-256) (receptor)”, the Kd is reported as 239 nM, the Response (nm) is reported as 0.73 nm and the koff is reported as 0.00313 s⁻¹. It also gave a kon of 13100 M⁻¹ s⁻¹. With “HSV2-gE_F322P_gI (from UniProt P89475 21-416; P06764 21-256) (receptor)” the Kd was 160 nM, the Response (nm) was 0.807 nm and the koff was 0.00223 s⁻¹. The kon was 13900 M⁻¹ s⁻¹. Substance “HSV2-gE_F322T_gI (from UniProt P89475 21-416; P06764 21-256) (receptor)” has a Kd of 179 nM, a Response (nm) of 0.762 nm and a koff of 0.00269 s⁻¹. The kon was 15000 M⁻¹ s⁻¹. With “HSV2-gE_H245A P319G_gI (from UniProt P89475 21-416; P06764 21-256) (receptor)” the Kd was 491 nM, the Response (nm) was 0.26 nm and the koff was 0.00391 s⁻¹. For the same substance, the kon was 7970 M⁻¹ s⁻¹. “HSV2-gE_H245A P319L_gI (from UniProt P89475 21-416; P06764 21-256) (receptor)” was tested, and the Kd was 449 nM, the Response (nm) was 0.265 nm and the koff was 0.00273 s⁻¹. It also gave a kon of 6080 M⁻¹ s⁻¹. With “HSV2-gE_H245G P319G_gI (from UniProt P89475 21-416; P06764 21-256) (receptor)” the Kd was 2010 nM, the Response (nm) was 0.157 nm and the koff was 0.00357 s⁻¹. It also gave a kon of 1780 M⁻¹ s⁻¹. “HSV2-gE_H245G P319L_gI (from UniProt P89475 21-416; P06764 21-256) (receptor)” was tested, and the Kd was 327 nM, the Response (nm) was 0.361 nm and the koff was 0.00189 s⁻¹. It also gave a kon of 5760 M⁻¹ s⁻¹. With “HSV2-gE_H245G R320T_gI (from UniProt P89475 21-416; P06764 21-256) (receptor)” the Kd was 591 nM, the Response (nm) was 0.279 nm and the koff was 0.00319 s⁻¹. It also gave a kon of 5400 M⁻¹ s⁻¹. In the case of “HSV2-gE_H245G_gI (from UniProt P89475 21-416; P06764 21-256) (receptor)”, the Kd is reported as 1630 nM, the Response (nm) is reported as 0.424 nm and the koff is reported as 0.00669 s⁻¹. The kon was 4110 M⁻¹ s⁻¹. Work on “HSV2-gE_H245I_gI (from UniProt P89475 21-416; P06764 21-256) (receptor)” yielded a Kd of 183 nM, a Response (nm) of 1.02 nm and a koff of 0.00301 s⁻¹. It also gave a kon of 16500 M⁻¹ s⁻¹. “HSV2-gE_H245K_gI (from UniProt P89475 21-416; P06764 21-256) (receptor)” was tested, and the Kd was 686 nM, the Response (nm) was 0.562 nm and the koff was 0.00614 s⁻¹. The kon was 8960 M⁻¹ s⁻¹. “HSV2-gE_H245Q_gI (from UniProt P89475 21-416; P06764 21-256) (receptor)” gave a Kd of 320 nM, a Response (nm) of 0.896 nm and a koff of 0.0048 s⁻¹. For the same substance, the kon was 15000 M⁻¹ s⁻¹. In the case of “HSV2-gE_H245R_gI (from UniProt P89475 21-416; P06764 21-256) (receptor)”, the Kd is reported as 265 nM, the Response (nm) is reported as 0.842 nm and the koff is reported as 0.00416 s⁻¹. The kon was 15700 M⁻¹ s⁻¹. “HSV2-gE_H245S_gI (from UniProt P89475 21-416; P06764 21-256) (receptor)” was tested, and the Kd was 866 nM, the Response (nm) was 0.46 nm and the koff was 0.00658 s⁻¹. For the same substance, the kon was 7600 M⁻¹ s⁻¹. “HSV2-gE_H245T_gI (from UniProt P89475 21-416; P06764 21-256) (receptor)” was tested, and the Kd was 813 nM, the Response (nm) was 0.493 nm and the koff was 0.00605 s⁻¹. For the same substance, the kon was 7450 M⁻¹ s⁻¹. In the case of “HSV2-gE_H245V_gI (from UniProt P89475 21-416; P06764 21-256) (receptor)”, the Kd is reported as 486 nM, the Response (nm) is reported as 0.745 nm and the koff is reported as 0.00573 s⁻¹. It also gave a kon of 11800 M⁻¹ s⁻¹. “HSV2-gE_P317F_gI (from UniProt P89475 21-416; P06764 21-256) (receptor)” showed a Kd of 8770 nM, a Response (nm) of 0.143 nm and a koff of 0.00166 s⁻¹. It also gave a kon of 189 M⁻¹ s⁻¹. In the case of “HSV2-gE_P317G_gI (from UniProt P89475 21-416; P06764 21-256) (receptor)”, the Kd is reported as 555 nM, the Response (nm) is reported as 0.338 nm and the koff is reported as 0.00429 s⁻¹. The kon was 7740 M⁻¹ s⁻¹. With “HSV2-gE_P317I_gI (from UniProt P89475 21-416; P06764 21-256) (receptor)” the Kd was 1000 nM, the Response (nm) was 0.243 nm and the koff was 0.00382 s⁻¹. For the same substance, the kon was 3810 M⁻¹ s⁻¹. In the case of “HSV2-gE_P317K_gI (from UniProt P89475 21-416; P06764 21-256) (receptor)”, the Kd is reported as 374 nM, the Response (nm) is reported as 0.13 nm and the koff is reported as 0.00136 s⁻¹. The kon was 3640 M⁻¹ s⁻¹. “HSV2-gE_P317L_gI (from UniProt P89475 21-416; P06764 21-256) (receptor)” gave a Kd of 5110 nM, a Response (nm) of 0.161 nm and a koff of 0.00181 s⁻¹. For the same substance, the kon was 354 M⁻¹ s⁻¹. “HSV2-gE_P317N_gI (from UniProt P89475 21-416; P06764 21-256) (receptor)” showed a Kd of 500 nM, a Response (nm) of 0.381 nm and a koff of 0.00459 s⁻¹. The kon was 9180 M⁻¹ s⁻¹. Work on “HSV2-gE_P317S_gI (from UniProt P89475 21-416; P06764 21-256) (receptor)” yielded a Kd of 255 nM, a Response (nm) of 0.669 nm and a koff of 0.00358 s⁻¹. The kon was 14000 M⁻¹ s⁻¹. Work on “HSV2-gE_P318D_gI (from UniProt P89475 21-416; P06764 21-256) (receptor)” yielded a Kd of under 0.001 nM, a Response (nm) of 0.0995 nm and a koff of under 1e-07 s⁻¹. It also gave a kon of 5180 M⁻¹ s⁻¹. “HSV2-gE_P318Q_gI (from UniProt P89475 21-416; P06764 21-256) (receptor)” showed a Kd of 443 nM, a Response (nm) of 0.152 nm and a koff of 0.00139 s⁻¹. It also gave a kon of 3150 M⁻¹ s⁻¹. In the case of “HSV2-gE_P318R_gI (from UniProt P89475 21-416; P06764 21-256) (receptor)”, the Kd is reported as 794 nM, the Response (nm) is reported as 0.151 nm and the koff is reported as 0.000756 s⁻¹. For the same substance, the kon was 952 M⁻¹ s⁻¹.
